For this assay, the target named is T1, FLAG-tagged PXR K109A (human, UniProt O75469 1-434, K109A).
T1 sequence (looked up): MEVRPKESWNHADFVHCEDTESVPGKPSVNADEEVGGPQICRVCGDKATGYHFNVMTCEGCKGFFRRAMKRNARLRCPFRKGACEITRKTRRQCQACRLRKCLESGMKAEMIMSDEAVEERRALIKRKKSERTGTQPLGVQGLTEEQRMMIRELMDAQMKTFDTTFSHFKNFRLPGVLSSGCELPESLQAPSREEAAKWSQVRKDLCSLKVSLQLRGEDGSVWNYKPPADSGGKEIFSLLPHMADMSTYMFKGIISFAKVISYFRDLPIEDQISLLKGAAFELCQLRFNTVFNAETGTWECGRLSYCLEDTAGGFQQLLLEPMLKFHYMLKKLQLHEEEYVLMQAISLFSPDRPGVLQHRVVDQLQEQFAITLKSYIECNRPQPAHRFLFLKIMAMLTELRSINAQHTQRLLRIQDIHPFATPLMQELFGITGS
The assay can be described thus: co-IP.

The results in this text go back to article doi:10.1101/2023.02.03.527063 (bioRxiv, 2023).

B1: His-tagged BRD9 (natural protein, UniProt Q9H8M2 1-597, looked up)
chain: MGKKHKKHKAEWRSSYEDYADKPLEKPLKLVLKVGGSEVTELSGSGHDSSYYDDRSDHERERHKEKKKKKKKKSEKEKHLDDEERRKRKEEKKRKREREHCDTEGEADDFDPGKKVEVEPPPDRPVRACRTQPAENESTPIQQLLEHFLRQLQRKDPHGFFAFPVTDAIAPGYSMIIKHPMDFGTMKDKIVANEYKSVTEFKADFKLMCDNAMTYNRPDTVYYKLAKKILHAGFKMMSKQAALLGNEDTAVEEPVPEVVPVQVETAKKSKKPSREVISCMFEPEGNACSLTDSTAEEHVLALVEHAADEARDRINRFLPGGKMGYLKRNGDGSLLYSVVNTAEPDADEEETHPVDLSSLSSKLLPGFTTLGFKDERRNKVTFLSSATTALSMQNNSVFGDLKSDEMELLYSAYGDETGVQCALSLQEFVKDAGSYSKKVVDDLLDQITGGDHSRTLFQLKQRRNVPMKPPDEAKVGDTLGDSSSSVLEFMSMKSYPDVSVDISMLSSLGKVKKELDPDDSHLNLDETTKLLQDLHEAQAERGGSRPSSNLSSLSNASERDQHHLGSPSRLSVGEQPDVTHDPYEFLQSPEPAASAKT
For B1, the “interaction relative to that between FLAG-PXR and BRD9-His” value turned out to be 0.3 fold.
